“And” between values parts separate entries of the source, which are not always exact repeats. Equal values may be shown once.
Columns and labels:
[1] = target: full-length, untagged 18.5-kDa murine MBP (A1-R168) (mouse); experiment: ITC; Fyn-SH3 (0.7-1.3 mM) injected into the cell with MBP (45-80 uM); 20 mM HEPES, 100 mM NaCl, pH 7.4; 37 °C; 2 independent measurements; one-set of sites model; apparent values, first 3-4 points excluded (aggregation)
[2] = target: full-length, untagged 18.5-kDa murine MBP (A1-R168) (mouse); experiment: ITC; Fyn-SH3 (0.7-1.3 mM) injected into the cell with MBP (45-80 uM); 20 mM HEPES, 100 mM NaCl, pH 7.4; 22 °C; 3 independent measurements; one-set of sites model; apparent values, first 3-4 points excluded (aggregation)
[3] = target: xα2(S38–S107) peptide of murine 18.5 kDa myelin basic protein (mouse); experiment: NMR titration; unlabelled Fyn–SH3 titrated into 0.8 mM 15N-labelled xα2-peptide; 2D 15N-HSQC; 20 mM Hepes, 100 mM NaCl, 10% 2H2O, pH 7.4; molar ratios 1:0 to 1:1.2; fractional saturation fit of Y65 and T95 shifts; KD values are only estimates

full-length, untagged 18.5-kDa murine MBP (A1-R168) (mouse), sequence (P02686 other isoform, or with tags, fused parts or gaps): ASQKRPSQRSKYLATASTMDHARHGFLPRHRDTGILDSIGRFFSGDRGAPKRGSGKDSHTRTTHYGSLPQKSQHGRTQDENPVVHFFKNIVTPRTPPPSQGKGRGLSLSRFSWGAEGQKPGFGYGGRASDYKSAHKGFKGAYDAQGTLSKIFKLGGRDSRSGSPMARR

Substance | Kd [1] [µM] | stoichiometry N [1] | Kd [2] [µM] | stoichiometry N [2] | Kd [3]
Fyn-SH3 domain (Gallus gallus Fyn, residues 85-142) (from UniProt Q05876 85-142) (domain or fragment) | 5 | 1.2 | 5 | 0.6 | 
Fyn–SH3 domain (Gallus gallus Fyn tyrosine kinase, residues 85–142) (from UniProt Q05876 85-142) (domain or fragment) |  |  |  |  | 7.6 µM and 4 µM

Source: publication PMC4266924
